Laboratory results from patent US20190359697A1 (Scripps Research, published 2019).
Numbering of substitutions follows the chain as printed. Names and notes keep the numbering of the source.

T1: CD19 (UniProt P15391 20-556)
T1 chain: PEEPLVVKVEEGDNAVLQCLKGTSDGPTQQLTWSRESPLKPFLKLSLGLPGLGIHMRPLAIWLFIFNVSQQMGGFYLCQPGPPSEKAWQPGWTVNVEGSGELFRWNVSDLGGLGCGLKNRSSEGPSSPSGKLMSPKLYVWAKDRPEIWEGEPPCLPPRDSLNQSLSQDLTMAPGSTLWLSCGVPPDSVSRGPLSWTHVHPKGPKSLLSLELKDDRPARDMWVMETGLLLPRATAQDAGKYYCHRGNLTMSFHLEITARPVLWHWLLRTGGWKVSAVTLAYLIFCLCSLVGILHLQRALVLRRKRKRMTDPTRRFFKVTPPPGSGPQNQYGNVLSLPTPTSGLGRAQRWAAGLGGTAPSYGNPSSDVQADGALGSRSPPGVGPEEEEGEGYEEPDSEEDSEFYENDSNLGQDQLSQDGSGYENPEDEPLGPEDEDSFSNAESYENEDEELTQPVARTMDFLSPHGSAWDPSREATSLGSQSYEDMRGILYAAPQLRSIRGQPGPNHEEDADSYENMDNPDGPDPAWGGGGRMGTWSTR

T2: CD19 (UniProt P15391 20-556, limits assumed)
T2 sequence (looked up): T1 chain

B1: hFMCL2b/H4c(Q1E-V20L)-WT (antibody, V domains shown)
VH: EVQLQESGPGLVKPSETLSLTCTVSGVSLPDYGVSWIRQPPGKGLEWLGVIWGSETTYYNSALKSRLTISKDNSKNQVSLKMSSLTAADTAVYYCAKHYYYGGSYAMDYWGQGTLVTVSS
VL: DIQMTQSPSSLSASVGDRVTITCRASQDISKYLNWYQQKPGKAVKLLIYHTSRLHSGVPSRFSGSGSGTDYTLTISSLQPEDFATYFCQQGATLPYTFGQGTKLEIK
B2: hFMCL2b/H4c(Q1E)-WT (antibody, V domains shown)
VH: B1 VH with L20V
VL: B1 VL
B3: hFMCL2b(V44L)/H4c(Q1E)-WT (antibody, V domains shown)
VH: B1 VH with L20V
VL: B1 VL with V44L
B4: hFMCL2b/H4b-x-(Q1E)-WT (antibody, V domains shown)
VH: B1 VH with L48I, S61P, A62S, L67V, V78F, M82L, L85V
VL: B1 VL
B5: hFMCL2b/H4b(Q1E)-WT (antibody, V domains shown)
VH: B1 VH with L20V, S61P, A62S
VL: B1 VL
B6: hFMCL2b/H4c-x-(Q1E)-WT (antibody, V domains shown)
VH: B1 VH with L48I, L67V, V78F, M82L, L85V
VL: B1 VL
B7: hFMCL2b/H4b(Q1E-V20L)-WT (antibody, V domains shown)
VH: B1 VH with S61P, A62S
VL: B1 VL
B8: hFMCL2a-LCNT/hFMCH4b (Fab, V domains shown)
VH: B1 VH with E1Q, L20V, S61P, A62S
VL: B1 VL with F87Y
B9: hFMCL2/H4a WT (antibody, V domains shown)
VH: B1 VH with E1Q, L20V, S61P, A62S, N73T
VL: B1 VL with V44P, F87Y
B10: hFMCL2b(A92N)-LCNT/hFMCH4c(Q1E) (Fab, V domains shown)
VH: B1 VH with L20V
VL: B1 VL with A92N
B11: hFMCL2-LCNT/hFMCH4c (Fab, V domains shown)
VH: B1 VH with E1Q, L20V
VL: B1 VL with V44P, F87Y
B12: hFMCL2/H2 WT (antibody, V domains shown)
VH: B1 VH with E1Q, L20V, S61P, A62S, N73T, K97R
VL: B1 VL with V44P, F87Y
B13: hFMCL2-LCNT/hFMCH4b (Fab, V domains shown)
VH: B1 VH with E1Q, L20V, S61P, A62S
VL: B1 VL with V44P, F87Y
B14: hFMCL2/H3 WT (antibody, V domains shown)
VH: B1 VH with E1Q, L20V, S61P, A62S, K97R
VL: B1 VL with V44P, F87Y

Target: T1, CD19
Test: flow

B1 and B2 are within 1.5-fold of each other in EC50: 1.18 nM for the first, 0.809 nM for the second.

B3 and B4 are within 1.5-fold of each other in EC50: 1.72 nM for the first, 1.87 nM for the second.

Going from B5 to B6, the EC50 rises from 0.987 nM to 16.9 nM (17-fold).

In the case of B7, the EC50 is reported as 0.875 nM.

Target: T1, CD19
Test: flow cytometry cell binding; FIG. 6

B8 showed an EC50 of 1.61 nM.

target: T2, CD19; test: cell-based or functional assay

Going from B1 to B9, the “EC50 of cytotoxicity (LDH), sCAR-T cells + switch vs CD19+ RS4;11, Average of the repeat assays” value rises from 0.013 nM to 0.0407 nM (3.1-fold).

B10 and B2 are within 1.5-fold of each other in “EC50 of cytotoxicity (LDH), sCAR-T cells + switch vs CD19+ RS4;11, Average of the repeat assays” value: 0.00992 nM for the first, 0.00951 nM for the second.

First: B3
Second: B11
The “EC50 of cytotoxicity (LDH), sCAR-T cells + switch vs CD19+ RS4;11, Average of the repeat assays” value of the first is 2.4-fold lower: 0.00745 nM for the first, 0.018 nM for the second.

Compared with B4, B5 is 4.8-fold lower in “EC50 of cytotoxicity (LDH), sCAR-T cells + switch vs CD19+ RS4;11, Average of the repeat assays” value: 0.0538 nM for the first, 0.0113 nM for the second.

First: B12
Second: B6
The “EC50 of cytotoxicity (LDH), sCAR-T cells + switch vs CD19+ RS4;11, Average of the repeat assays” value of the first is 1.9-fold higher: 0.0843 nM for the first, 0.0442 nM for the second.

Compared with B7, B13 is 1.6-fold higher in “EC50 of cytotoxicity (LDH), sCAR-T cells + switch vs CD19+ RS4;11, Average of the repeat assays” value: 0.00996 nM for the first, 0.0156 nM for the second.

First: B14
Second: B8
The “EC50 of cytotoxicity (LDH), sCAR-T cells + switch vs CD19+ RS4;11, Average of the repeat assays” value of the first is 13-fold higher: 0.0876 nM for the first, 0.0068 nM for the second.

Going from B1 to B9, the “EC50 of cytotoxicity (LDH), sCAR-T cells + switch vs CD19+ RS4;11, assay DTR-5-15 (PBMC)” value (from here on “EC50 … vs CD19+ RS4;11, assay DTR-5-15 (PBMC)”) rises from 0.00752 nM to 0.0432 nM (5.7-fold).

B10 and B2 are within 1.5-fold of each other in “EC50 … vs CD19+ RS4;11, assay DTR-5-15 (PBMC)” value: 0.00873 nM for the first, 0.0071 nM for the second.

Compared with B3, B11 is 8.1-fold higher in “EC50 … vs CD19+ RS4;11, assay DTR-5-15 (PBMC)” value: 0.00204 nM for the first, 0.0166 nM for the second.

Compared with B4, B5 is 4.1-fold lower in “EC50 … vs CD19+ RS4;11, assay DTR-5-15 (PBMC)” value: 0.0296 nM for the first, 0.00715 nM for the second.

Compared with B12, B6 is 5-fold lower in “EC50 … vs CD19+ RS4;11, assay DTR-5-15 (PBMC)” value: 0.141 nM for the first, 0.0283 nM for the second.

Going from B7 to B13, the “EC50 … vs CD19+ RS4;11, assay DTR-5-15 (PBMC)” value rises from 0.00963 nM to 0.0214 nM (2.2-fold).

First: B14
Second: B8
The “EC50 … vs CD19+ RS4;11, assay DTR-5-15 (PBMC)” value of the first is 13-fold higher: 0.139 nM for the first, 0.0104 nM for the second.

First: B1
Second: B9
The “EC50 of cytotoxicity (LDH), sCAR-T cells + switch vs CD19+ RS4;11, assay DTR-5-16 (CD4:CD8)” value (“EC50 … vs CD19+ RS4;11, assay DTR-5-16 (CD4:CD8)” below) of the first is 3.3-fold lower: 0.0153 nM for the first, 0.0507 nM for the second.

B10 and B2 are within 1.5-fold of each other in “EC50 … vs CD19+ RS4;11, assay DTR-5-16 (CD4:CD8)” value: 0.00919 nM for the first, 0.00941 nM for the second.

First: B3
Second: B11
The “EC50 … vs CD19+ RS4;11, assay DTR-5-16 (CD4:CD8)” value of the first is 1.9-fold lower: 0.00845 nM for the first, 0.016 nM for the second.

Going from B4 to B5, the “EC50 … vs CD19+ RS4;11, assay DTR-5-16 (CD4:CD8)” value falls from 0.0776 nM to 0.0105 nM (7.4-fold).

B12 and B6 are within 1.5-fold of each other in “EC50 … vs CD19+ RS4;11, assay DTR-5-16 (CD4:CD8)” value: 0.079 nM for the first, 0.0818 nM for the second.

Going from B7 to B13, the “EC50 … vs CD19+ RS4;11, assay DTR-5-16 (CD4:CD8)” value falls from 0.0131 nM to 0.00743 nM (1.8-fold).

Going from B14 to B8, the “EC50 … vs CD19+ RS4;11, assay DTR-5-16 (CD4:CD8)” value falls from 0.0771 nM to 0.00603 nM (13-fold).

Going from B1 to B9, the “EC50 of cytotoxicity (LDH), sCAR-T cells + switch vs CD19+ RS4;11, assay DTR-5-50 (PBMC)” value (from here on “EC50 … vs CD19+ RS4;11, assay DTR-5-50 (PBMC)”) rises from 0.0144 nM to 0.0283 nM (2-fold).

B10 and B2 are within 1.5-fold of each other in “EC50 … vs CD19+ RS4;11, assay DTR-5-50 (PBMC)” value: 0.00655 nM for the first, 0.00825 nM for the second.

B3 and B11 are within 1.5-fold of each other in “EC50 … vs CD19+ RS4;11, assay DTR-5-50 (PBMC)” value: 0.00701 nM for the first, 0.0092 nM for the second.

Going from B4 to B5, the “EC50 … vs CD19+ RS4;11, assay DTR-5-50 (PBMC)” value falls from 0.0438 nM to 0.00697 nM (6.3-fold).

Compared with B12, B6 is 2.6-fold lower in “EC50 … vs CD19+ RS4;11, assay DTR-5-50 (PBMC)” value: 0.0386 nM for the first, 0.0151 nM for the second.

First: B7
Second: B13
The “EC50 … vs CD19+ RS4;11, assay DTR-5-50 (PBMC)” value of the first is 2.5-fold lower: 0.00748 nM for the first, 0.0187 nM for the second.

Compared with B14, B8 is 12-fold lower in “EC50 … vs CD19+ RS4;11, assay DTR-5-50 (PBMC)” value: 0.0614 nM for the first, 0.00529 nM for the second.

Going from B1 to B9, the “EC50 of cytotoxicity (LDH), sCAR-T cells + switch vs CD19+ RS4;11, assay DTR-5-51 (CD4:CD8)” value (“EC50 … vs CD19+ RS4;11, assay DTR-5-51 (CD4:CD8)” below) rises from 0.0148 nM to 0.0407 nM (2.8-fold).

B10 and B2 are within 1.5-fold of each other in “EC50 … vs CD19+ RS4;11, assay DTR-5-51 (CD4:CD8)” value: 0.0152 nM for the first, 0.0133 nM for the second.

First: B3
Second: B11
The “EC50 … vs CD19+ RS4;11, assay DTR-5-51 (CD4:CD8)” value of the first is 2.4-fold lower: 0.0123 nM for the first, 0.0301 nM for the second.

First: B4
Second: B5
The “EC50 … vs CD19+ RS4;11, assay DTR-5-51 (CD4:CD8)” value of the first is 3.1-fold higher: 0.0639 nM for the first, 0.0207 nM for the second.

First: B12
Second: B6
The “EC50 … vs CD19+ RS4;11, assay DTR-5-51 (CD4:CD8)” value of the first is 1.5-fold higher: 0.0785 nM for the first, 0.0515 nM for the second.

Going from B7 to B13, the “EC50 … vs CD19+ RS4;11, assay DTR-5-51 (CD4:CD8)” value rises from 0.0096 nM to 0.0146 nM (1.5-fold).

Going from B14 to B8, the “EC50 … vs CD19+ RS4;11, assay DTR-5-51 (CD4:CD8)” value falls from 0.0726 nM to 0.00545 nM (13-fold).

Target: T1, CD19
Test: flow cytometry cell binding; FIG. 7

With B8 the EC50 was 2.43 nM.

Target: T1, CD19
Test: flow cytometry cell binding; FIG. 5; WT switch (no PNE)

Going from B9 to B12, the EC50 rises from 6.65 nM to 45.6 nM (6.9-fold). The first is the more potent here.

B14 gave an EC50 of 23.9 nM.
